Source: US20090060908A1 (Bristol-Myers Squibb, published 2009)
One block for each binder: values may come before it.

How the values were obtained:
[1] = target: T1, prostate specific membrane antigen (PSMA) on LNCaP cells (human, UniProt Q04609 1-750); experiment: cell-based or functional assay
[2] = target: T1, prostate specific membrane antigen …; experiment: cell-based or functional assay; remark: listed apart in the source

T1 sequence (Q04609 whole entry): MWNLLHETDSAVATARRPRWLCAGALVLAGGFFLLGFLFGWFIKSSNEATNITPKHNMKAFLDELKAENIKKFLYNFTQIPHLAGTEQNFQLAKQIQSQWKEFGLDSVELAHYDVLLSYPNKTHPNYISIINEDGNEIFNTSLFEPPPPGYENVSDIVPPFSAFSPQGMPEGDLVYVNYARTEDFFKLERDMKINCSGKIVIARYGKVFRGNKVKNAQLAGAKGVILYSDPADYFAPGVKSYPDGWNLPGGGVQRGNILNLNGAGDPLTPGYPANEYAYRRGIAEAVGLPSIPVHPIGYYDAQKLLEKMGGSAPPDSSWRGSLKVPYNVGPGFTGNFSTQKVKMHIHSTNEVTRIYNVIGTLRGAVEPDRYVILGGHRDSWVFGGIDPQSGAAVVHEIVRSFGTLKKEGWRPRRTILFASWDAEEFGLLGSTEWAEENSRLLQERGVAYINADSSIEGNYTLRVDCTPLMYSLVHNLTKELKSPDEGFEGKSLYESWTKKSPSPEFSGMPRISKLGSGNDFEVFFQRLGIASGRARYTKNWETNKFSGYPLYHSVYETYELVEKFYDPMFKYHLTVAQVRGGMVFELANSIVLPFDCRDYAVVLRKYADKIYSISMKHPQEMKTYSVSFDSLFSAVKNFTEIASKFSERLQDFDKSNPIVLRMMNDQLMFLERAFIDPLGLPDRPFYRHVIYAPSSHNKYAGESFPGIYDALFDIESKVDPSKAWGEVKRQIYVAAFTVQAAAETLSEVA

ADCC % lysis at 1 µg/ml antibody, no anti-CD16 antibody [1]: ~38% | ADCC EC50, 51Cr release, LNCaP-C42b targets, IL-2 stimulated effector cells [1]: 0.018 µg/mL | ADCC EC50 fold difference against CHO-expressed 7F12 [1]: ~6 fold lower
B1: anti-PSMA human monoclonal antibody 7F12 expressed in eggs of chimeric chickens (lacks fucose residues) (antibody, IgG1, V domains shown)
VH: AVQLVQSGAEVKKPGESLKISCKGSGYSFTSFWIGWARQMPGKGLEWMGIIYPGDSDTRYSPSFQGQVTISADKSISTAYLQWSSLKASDTAMYYCATANSSFWNFDLWGRGTLVTVSS
VL: EIVLTQSPATLSLSPGERATLSCRASQSVSSYLAWYQQKPGQAPRLLIYDASNRATGIPARFSGSGSGTDFTLTISSLEPEDFAVYYCQQRSNWLMYTFGQGTKLEIK
modifications: N-linked Fc glycans without fucosyl residues (high-mannose, complex and hybrid type)
EC50 for antibody internalization (Hum-Zap saporin conjugate, LNCaP cell viability) [1]: 0.49 nM

ADCC % lysis at 1 µg/ml antibody, no anti-CD16 antibody [1]: ~15% | ADCC EC50, 51Cr release, LNCaP-C42b targets, IL-2 stimulated effector cells [1]: 0.11 µg/mL
B2: anti-PSMA human monoclonal antibody 7F12 expressed in CHO cells (fucosylated) (antibody, human IgG1, V domains shown)
VH: B1 VH
VL: B1 VL
modifications: N-linked Fc glycans containing fucosyl residues
EC50 for antibody internalization (Hum-Zap saporin conjugate, LNCaP cell viability) [1]: 0.49 nM

Second part, the binder before the results:

B3: anti-PSMA fully human monoclonal antibody 2A10 expressed in CHO DG44 cells (fucosylated) (antibody, V domains shown)
VH: EVQLVQSGAEVKKPGESLKISCKGSGYSFTSNWIGWVRQMPGKGLEWMGIIYPGDSDTRYSPSFQGQVTISADKSISTAYLQWSSLKASDTAMYYCARQTGFLWSSDLWGRGTLVTVSS
VL: AIQLTQSPSSLSASVGDRVTITCRASQDISSALAWYQQKPGKAPKLLIYDASSLESGVPSRFSGYGSGTDFTLTINSLQPEDFATYYCQQFNSYPLTFGGGTKVEIK
modifications: N-linked glycans containing fucose
ADCC EC50 (µg/ml) Fucosylated, Expt. #1 (IL-2 stimulated effector cells, LNCaP-C42b targets) [2]: 0.08 µg/mL | ADCC EC50 (µg/ml) Fucosylated, Expt. #2 (IL-2 stimulated effector cells, LNCaP-C42b targets) [2]: 0.026 µg/mL | ADCC EC50 (µg/ml) Fucosylated, Expt. #3 (fresh human peripheral blood effector cells, LNCaP-C42b targets) [2]: 0.036 µg/mL | ADCC % lysis at 1 µg/ml antibody, no anti-CD16 antibody [1]: ~12%

B4: anti-PSMA fully human monoclonal antibody 2A10 expressed in FUT8-/- Ms704 cells (defucosylated) (antibody, IgG1, V domains shown)
VH: B3 VH
VL: B3 VL
modifications: N-linked glycans without fucose residues
ADCC EC50 (µg/ml) Defucosylated, Expt. #1 (IL-2 stimulated effector cells, LNCaP-C42b targets) [2]: 0.007 µg/mL | ADCC EC50 (µg/ml) Defucosylated, Expt. #2 (IL-2 stimulated effector cells, LNCaP-C42b targets) [2]: 0.009 µg/mL | ADCC EC50 (µg/ml) Defucosylated, Expt. #3 (fresh human peripheral blood effector cells, LNCaP-C42b targets) [2]: 0.002 µg/mL | ADCC EC50 Ratio (fucosylated to defucosylated 2A10), Expt. #1 [2]: 11.4 ratio | ADCC EC50 Ratio (fucosylated to defucosylated 2A10), Expt. #2 [2]: 2.9 ratio | ADCC EC50 Ratio (fucosylated to defucosylated 2A10), Expt. #3 [2]: 18 ratio | ADCC % lysis at 1 µg/ml antibody, no anti-CD16 antibody [1]: ~37%
